Assay results taken from patent US20260216242A1, “ALPP-SPECIFIC VARIANT ANTIGEN BINDING MOLECULES” (ALMAC DISCOVERY LIMITED, priority 2022, published 2026).

Target: ALPP/ALPPL2 on ALPP/ALPPL2 positive cancer cells
Assay: cell-based or functional assay

B1: D10 F05-hFc (S239/442C T366Y/Y407T) [G4S]1 conjugated to MC-vc-PAB-MMAE (Fc fusion, DAR 4.0)
chain 1: QVQLVESGGGLVQPGGSLRLSCAASGSIFSVNTMGWYRQAPGKQRDLVAVATSGGTIHYADSVKGRFTISRDNAKNTVYLQMNSLKPEDTAVYYCNLVVPYGMIAGDHDYWGQGTKVTVSSGGGGSEPKSSDKTHTCPPCPAPELLGGPCVFLFPPKPKDTLMISRTPEVTCVVVDVSHEDPEVKFNWYVDGVEVHNAKTKPREEQYNSTYRVVSVLTVLHQDWLNGKEYKCKVSNKALPAPIEKTISKAKGQPREPQVYTLPPSRDELTKNQVSLYCLVKGFYPSDIAVEWESNGQPENNYKTTPPVLDSDGSFFLYSKLTVDKSRWQQGNVFSCSVMHEALHNHYTQKSLCLSPGK
chain 2: QVQLVESGGGLVQAGGSLRLSCAASGRAFGDYNIGWFRQAPGKEREFVARRTWDGSSTRYDDSVKGRFTVSIDNAKNTAYLQMNSLKTEDTAVYYCAAGRYSRVRGWEYDYWGQGTQVTVSSGGGGSEPKSSDKTHTCPPCPAPELLGGPCVFLFPPKPKDTLMISRTPEVTCVVVDVSHEDPEVKFNWYVDGVEVHNAKTKPREEQYNSTYRVVSVLTVLHQDWLNGKEYKCKVSNKALPAPIEKTISKAKGQPREPQVYTLPPSRDELTKNQVSLTCLVKGFYPSDIAVEWESNGQPENNYKTTPPVLDSDGSFFLTSKLTVDKSRWQQGNVFSCSVMHEALHNHYTQKSLCLSPGK
modifications: here or on the partner: MC-vc-PAB-MMAE on Cys 239 and Cys 442 (S239C, S442C, EU numbering)
% viability remaining, MDA-MB-468 cells: 17%
% viability remaining, MKN-1 cells: 16%
% viability remaining, NCI-H1651 cells: 22%
% viability remaining, NCI-N87 cells: 35%
IC50 at 96 h (nM), cell-killing of MDA-MB-468 cells (Cell Titre Glo): 2.36 nM
IC50 at 96 h (nM), cell-killing of MKN-1 cells (Cell Titre Glo): 0.14 nM
IC50 at 96 h (nM), cell-killing of NCI-H1651 cells (Cell Titre Glo): 0.85 nM
IC50 at 96 h (nM), cell-killing of NCI-N87 cells (Cell Titre Glo): 2 nM
